Assay results taken from patent publication US20100086943.

System: fusion protein comprising the c-myc tag, a generic substrate recognized by the serine/threonine kinases and the FLAG tag, expressed from the pSEMS plasmid (Snaptag)

Row | Substance | phosphorylation of the substrate measured by TR-FRET after activation by ionomycin | phosphorylation of the substrate measured by TR-FRET (delta F)
1 | Cam kinase II (expressed from CamKII delta-pcDNA 3.1) | in the presence of ionomycin, the signal measured is much greater than in its absence | 
2 | kinase Akt1 (expressed from Akt1-pcDNA 3.1) |  | The co-transfection with the plasmid coding for the protein substrate and the plasmid coding for the kinase Akt1 makes it possible to increase the quantity of protein substrate phosphorylated specifically by Akt1
